Patent US7560527

Molecular target: natural cellular receptor for adenovirus on 293 human cells (human)
Assay: cell-based or functional assay

native Ad5 fiber carried by the recombinant AdLacZ virus (from UniProt P11818 1-581)
degree of inhibition of the infection of 293-cells with AdLacZ by recombinant Ad5 knob at 100 µg/ml: 95%
